The values below come from the nanobody polyreactivity screen of Harvey et al. (2022).

The series is described as follows: yeast display, Sf9 membrane polyspecificity reagent, FACS + sequencing; frameworks hold sequencing errors. In outline: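 After 36–48 hours of galactose induction, yeast (Saccharomyces cerevisiae BJ5465) displaying a synthetic nanobody library were stained at 4 °C for 1 hour with 10% biotinylated, detergent-solubilized Sf9 membrane reagent. Streptavidin microbeads enriched the stained cells before FACS sorting into low and high (top ~1%) gates on anti-HA and streptavidin fluorescence. Each clone's polyreactivity label reflects its gate of origin.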
As to “QVQLVESGGGLVQAGGSLRLSCAASGRTFGYYAMGWYRQAPGKERELVAAITWIGGSTYADSVKGRFTISRDNAKNTVYLQMNSLKPEDTAVYYCAADPSVWSDYYYWGQGTQVTVSS”, the “polyreactivity (PSR sort gate)” value was “high polyreactivity”.
As for “HVQLVESGRGLFQAGGSLRLSCAASGFIFQYYAMGWYRQAPGKERELVAAISFGGSTYYADSVKGRFTISRDNAKNTVYLQMNSLKPEDTAVYYCAGDYYSWYGYDYWGQCTQVTVSS”, the “polyreactivity (PSR sort gate)” value is listed as “low polyreactivity”.
As for “QVQLVESGGGLVQEGGSLRLSCAASGSTFGGYAMGWYRQAPGKERELVAAISGSGVRTYYADSVKGRFTISRDNAKYSVYLQMNSLKPEDTAVYYCAKRVRYPGDRYYYWGQGSQVTVSS”, the entry is “high polyreactivity”; as for “QVQLVESGGGLVQAGGSLRLSCAASGRIFNLYAMGWYRQAPGKERELVAAINWSGDRTYYADSVKGRFTISRDNAKNTVYLQMYSLKPEDTAVYYCNADGLEIERYAYWYVFLGYDYWGQGTQVTVSS”, “low polyreactivity”; as for “QVQLVESGGGLVQAGGSLRLSCGASGSIFYQNVMGWYRQAPGKERELVAAISSSGDSTYYADSVKGRFTISRDNAKNTVYLQMNSLKPEDTAVYYCAAEPEYVSGPYDYWGQGTQVTVSS”, “low polyreactivity”.
Then “QVQLVESGGGLVQAGGSLRLSCAASGRTLYRNAMGWYRQAPGKERELVARITWSGASTYYADSVKGRFTISRDNAKNTVYLQMNSLKPDDTAVYYCNTGYWYVSLGSYDYYGEYDYWGQGTQVTVSS”, with “high polyreactivity”; and “QVQLVESGGGLVQAGGSLRLSCAASGRTFWSYAMGWYRQAPGKEREFVAAISRRGGITYYADSVKGRFTISRDNAKNTVYLQMNSLKPEDTAVYYCAALPASVRRPGWHDYWGQGTQVTVSS”, with “high polyreactivity”.
As for “QVQLVESGGGLVQAGGSLRLSCAASGISFLDNALGWYRQATGKERELVAAYADSVKGRFTISRDNAKNTVYLQMNSLKPEDTAVYYCNAGWIRNYGFSLVTYDYWGQGTQVTVSS”, the entry is “low polyreactivity”; as for “QVQLVESGGGLVQAGGSLRLSCAASGLIFYGYAMGWYRQAPGKERELVAAISSGGSTNYADSVKGRFTISRDNAKNTVYLQMNSLKPEDTAVYYCAAKPIFYRTILYYYWGQGTQVTVSS”, “high polyreactivity”; as for “QVQLVESGVGLVQAGGSLRLSCAASGRIFPGNVMGWYIQAPGKERELVAAISRGGGSTYYADSVKGRFTISRDIAKNTVYAQMNSLKPEDTAVYYCNVLRYQSRFRYDYWGLGTQVTVSS”, “high polyreactivity”.
“QVQLVESGGGLVQAGGSLRLSCAASGRIFGRYTMGWYRQAPGKERELVAAISARGGSTYYADSVKGRFTISRDNAKNTVYLQMNSLKPEDTAVYYCNTVRVHGFPIDRIYDYWGQGTQVTVSS”: the “polyreactivity (PSR sort gate)” value is “high polyreactivity”.
Then “QVQLVESGGGLVQAGGSLRLSCAASGRIFAGNAMGWYRQAPGKERELVAVISKGGGRTYYADSVKGRFTFSRDNAKNTVYLQMNSLKPEDTAVYYCAVRTLQRGKHDLGVDYWGQGTHVTVSS”, with “high polyreactivity”; and “QVQLVESGGGLVQAGGSHRLSCAASGLTLQRYTLGSYRQAPGKQSELVAAISRSGGGTYYADSVKGRFTISRDNAKNTVYLQMNSVKPEDTAVYYCAARGYTSYKHFGYWGQGTQVTVSS”, with “high polyreactivity”.
As for “QVQLVESGGGLVQAGGSLRLSCAASGFIFNRYAMGWYRQAPGKERELVATITRRGGRTYFADSVKGRFTISRDNAKNTVYLQMNSLKPEDTAVYYCNADPNVPVETFDYWGQGTQVTVSS”, the entry is “high polyreactivity”; as for “QVQLVESGGGLVQAGGSLRLSCAASGFTFVYYVMGWYRQAPGKERELVAAINAGGGSTYYADSVKGRFTISRDNAKNTVYLQMNSLKPEDTAVYYCNARVRVRLGRNWSSYYYCGQGTQVTVSS”, “high polyreactivity”; as for “QVQLVESGGGLVQAGGSLRLSCAASGSTFWYYTMGWYRQAPGKERELVATISWRGGRTTYADSVKGRFTISRDNAKNTVYLQMNSLKPEDTAVYYCNAERFPGYGGPSRYLYQEYVYWGQGTQVTVSS”, “low polyreactivity”.
Then “QVQLVESGGGLVQAGGSLRLSCAASGSIFGRNAMGWYRQAPGKERELVAAINSGGSTNYADSVKGRFTISRDNAKNTVYLQMNSLKPEDTAVYYCAARTYSSGRYYGYVAFYYWGQGTQVTVSS”, with “high polyreactivity”; and “QVQLVESGGGLVQAGGSLRLSCAASGSIFYYYAMGWYRQAPGKERELVAAISRSGGSTYYADSVKGRFTISRDNAKNTVYVQMNSLKRDDTAVYYCAAQSRYWTYDYWGQGTQVTVSS”, with “high polyreactivity”; and “QVQLVESGGGLVQAGGSLRLSCAASGSIFTLYAMGWYRQAPGKERELVAAITRSGGSTYYADSVKGRFTISRDNAKNTVYLQMNSLKPEDTAVYYCNKATAYGLDYWGQATQVTVSS”, with “high polyreactivity”.
Take “QVQLVESGGGLVQAGGSLRLSCSASGSTFGQYAMGWYRHAPGKERELVAAISRGGGSTYYADSVKGRFTISRDNAKYTVYLQMNSLKPEDTAVYYCNALSARSYYWGQGTQVTVSS”: the “polyreactivity (PSR sort gate)” value is reported as “high polyreactivity”.
“QVQLVESGGGLVQAGGSLRLSCAASGRNFYYYTMGWYRQAPGKERALVASISQSGARTYYADSVKGRFTISRDNSKNTVYLQMNSLKPVYTAVYYCNAVGTGGYHYWGQGTQVTVSS”: the “polyreactivity (PSR sort gate)” value is reported as “high polyreactivity”.
As for “QVQLVESGGGLFQAGGSLRLSCAASGSIFYNYGMAWYRHAPGKERELVAAIRASGDSTYYADSVKGRFTISRDNAKNTVYLQMNSLKPEDTEVYYCAARPNQSYYGLYYYWGQGTQVTVSS”, the entry is “low polyreactivity”; as for “QVQLVESGGGLVQAGGSLRLSCAASGRTFLYYAMGWYRQAPGKERELVAAITWSGGSTYYADSVKGRFTISRDNAKNTVYLQMNSLKPEDTAVYYCAALGWIDWYWQPGMDYWGQGTQVTVSS”, “high polyreactivity”; as for “QFQLVESGGGLVQAGGSLRLSCAASGRTFIGYAMGWYRQAPGKERELVAAITSDGGTNYADSVKGRFTISRDNAKNTVNLQMNSQKPEDTAVYYCGARRRVSYHLYGYWGQGTQVTLSS”, “high polyreactivity”.
As for “QDQLEESALGLVQAGGSLRLICAASGRTFQYYTMAWYRPAPAKEREFVAAIRDSGGSTYYADSVKGRFTISRDNAKNTVYLQMNSLKPEDTAVYYCNKVPNGPSNYDYWGQGTQVTVSS”, the “polyreactivity (PSR sort gate)” value is recorded as “high polyreactivity”.
Turning to “QVQLVESGGGLVQAGGSLRLSCAASGFTFRAYVMGWSRQAPGKERELVAAISRSGGSTYYADSVKGRLTISRDNAKNTVYLQMNSLKPEDTAVYYCAAGVPGPRVKIQARFDYWGQGTQVTVSS”, the “polyreactivity (PSR sort gate)” value is on record as “high polyreactivity”.
As for “EVQLVESGGGLVQPGGSLRLSCEASGYIYSRYRMGWYRQAPGKAREFVAAISGGSSTNYADSVKGRFTISRDNSKNTVYLQMNSLRAEDTAVYYCAAYKIDSDPRVYWGQGTQVTVSS”, the entry is “low polyreactivity”; as for “QVQLVESGGGLVQAGGSLRISCAASGITYKEYAMGWYRQAPGKERELVAAISISGGSTYYADSVKGRFTISRDNAKNTFYLQMNSLKPEDTAVYFCAADYAEYEYGDYYWGQGTQVTVSS”, “low polyreactivity”.
As for “QVQLVESGGGLVQAGGSLRLSCAASGFIFAPYAMGWYRQAPGKERELVAAISWSGGSTYYADSVKGRFTISRDNAKNTVYLQMNSLKPEDTAVYYCAAAGYITRYDRYDYWGQGTQVTVSS”, the entry is “high polyreactivity”; as for “QVQLEESGGGLVQAGGSLRISCAASGSTYYNYAMGWYRQAPGKERELVAAISRSGITYYADSVKGRFTISRDNAKNTVYLQMNSLKPEDTAVYYCAAGRRFDQSMYYWGQGTQVTVSS”, “high polyreactivity”; as for “QVQLVESGGGLVQAGGSLRLSCAASGYIFPRYAMGWYRQAPGKERELVAAITGSGGSTYYADSVKGRFTISRDNAKNTVYLQMNSLKPEDTAVYYCNTVYYRSGSQRLDYWGQGTQVTVSS”, “high polyreactivity”.
As for “QVQLVESGGGLVQAGGSLRLSCAASGRIFISNAKGWYRQAPGKERELVAAITWIGDRTYYADSVKGRFTISRDNAKNTVYLQMNSLKPEDTAVYYCNRVTSRVSGRYSYDYWGQGTQVTVSS”, the entry is “high polyreactivity”.
As for “QVQLVESGGGLVQAGGSLRLSCAASGRIFKCYAMGWYRQAPGKERELVAAISSGGRTYYADSVKGRFTISRDNAKNTVYLQMNSLKPEDTAVYYCAALQRTGPYAGSSGYWGQGSQVTVSS”, the “polyreactivity (PSR sort gate)” value was “high polyreactivity”.
With “QVQLVESGGGLVQAGGSLRLSCAASGSTFPPNAMGWYRQAPGKERELVADSSDSSTYYADSVKGRFTISRDNAKNTVYLQMNSLKPEDTAVYYCAAADAGLRSKSYGQQYDYWGQGTQVTVSS”, the “polyreactivity (PSR sort gate)” value was “low polyreactivity”.
As for “QVQLVESGGGLVQAGGSLRLSCAASGSISRGNVMGWYRQAPGKERELVAGITRGGRTNYADSVKGRFTISRDNAKNTVYLQMNSLKPEDTAVYYCATYTYYVPWRQRGGYPDFDYWGQGTQVTVSS”, the entry is “high polyreactivity”.
Turning to “QVQLVESGGGLVQAGGSLRLSCAASGSTFRRNAMGWYRQAPGKERELVAAITVSGGSTYYADSVKGRFTISRDNAKNTVYLQMNSLKPEDTAVYYCAAEPSQYSWYTTYYYWGQGTQVTVSS”, the “polyreactivity (PSR sort gate)” value was “high polyreactivity”.
On to “QVQLVESGGGLVQAGGSLRLSCAASGIIFYHYALGWYRPAPGKERELVAAISRRGGTTYYADSVKGRFTISRDNAKNTVYLQMNSLKPEDTAVYYCAADYGSYGLYRGYYYWGQGTQVTVSS”, for which the “polyreactivity (PSR sort gate)” value was “high polyreactivity”.
In the case of “QVQLVESGGGLVQAGGSLRLSCAASGRTFARNAMGWYRQAPGKERELVAAITSIGTRTYYADSVKARFTISRDNAMNTVYLQMNSLKREDTAVYYCNKKRTADYDYWGQGTQVTVSS”, the “polyreactivity (PSR sort gate)” value is “low polyreactivity”.
Then “QVQLVESGGGLVQAGGSLRLTWAASGSTYESNAMGWYRPAPGKERELVAAISSSGGSTYYADSVKGRFTITRDNAKNTVYLQMNSLKPEDTAVYYGNKGGLSDYDYWGQGTQVTVSS”, with “high polyreactivity”; and “QVQLVESGGGLVQAGGSLRLSCAASGRIFAPKAMGWYRQAPGKERELVATITWSGGSTYYADSVKGRFTISRDNAKNSVYLQMNSLNPEDTAVYYCAAETQIRLWSLQYRYYYWGQGTQVTVSS”, with “low polyreactivity”.
